Results reported in the PETadex activity labels (doi:10.1042/bj3320075).

Columns and labels:
Conditions in all cases: pH 7.1; 25 °C
p-NP-C2 = substrate: p-NP-C2
p-NP-C3 = substrate: p-NP-C3
p-NP-C4 = substrate: p-NP-C4
p-NP-C5 = substrate: p-NP-C5
p-NP-C6 = substrate: p-NP-C6
p-NP-C8 = substrate: p-NP-C8

B1: unnamed (protein)
chain: MKPENKLPVLDLISAEMKTVVNTLQPDLPPWPATGTIAEQRQYYTLERRFWNAGAPEMATRAYMVPTKYGQVETRLFCPQPDSPATLFYLHGGGFILGNLDTHDRIMRLLASYSQCTVIGIDYTLSPEARFPQAIEEIVAACCYFHQQAEDYQINMSRIGFAGDSAGAMLALASALWLRDKQIDCGKVAGVLLWYGLYGLRDSVTRRLLGGVWDGLTQQDLQMYEEAYLSNDADRESPYYCLFNNDLTREVPPCFIAGAEFDPLLDDSRLLYQTLAAHQQPCEFKLYPGTLHAFLHYSRMMKTADEALRDGAQFFTAQL
Km (p-NP-C2): 1.5 mM | kcat (p-NP-C2): 30.8 s⁻¹ | kcat/Km (p-NP-C2): 20500 s⁻¹ M⁻¹ | Km (p-NP-C3): 700 µM | kcat (p-NP-C3): 30.9 s⁻¹ | kcat/Km (p-NP-C3): 44100 s⁻¹ M⁻¹ | Km (p-NP-C4): 500 µM | kcat (p-NP-C4): 30.9 s⁻¹ | kcat/Km (p-NP-C4): 61800 s⁻¹ M⁻¹ | Km (p-NP-C5): 260 µM | kcat (p-NP-C5): 20.5 s⁻¹ | kcat/Km (p-NP-C5): 78800 s⁻¹ M⁻¹ | Km (p-NP-C6): 220 µM | kcat (p-NP-C6): 6.2 s⁻¹ | kcat/Km (p-NP-C6): 28200 s⁻¹ M⁻¹ | Km (p-NP-C8): 160 µM | kcat (p-NP-C8): 0.21 s⁻¹ | kcat/Km (p-NP-C8): 1310 s⁻¹ M⁻¹
